Data as given in paper doi:10.64898/2025.12.01.691523.

Target: Anopheles culicifacies ferritin heavy chain homolog (AcFtnHCH), recombinant, refolded (Anopheles culicifacies)
Assay: native gel or EMSA

stoichiometry N: 24
Substance: Anopheles culicifacies ferritin heavy chain homolog (AcFtnHCH), recombinant, refolded (natural protein)
